Experimental data published in paper PMC9414842.

Target: human large conductance voltage- and calcium-activated potassium channel (hBK) (human) (UniProt Q12791)
Test: cryo-EM structure; random spherically constrained (RSC) single-particle cryo-EM of hBK reconstituted into POPC liposomes, without Ca2+ (20 mM HEPES pH 7.4, 150 mM KCl, 2 mM EDTA); map with C2 symmetry at 3.48 Å

Sequence of human large conductance voltage- and calcium-activated potassium channel (hBK), Q12791 1-1236 (natural protein; other documents disagree on this pair) (Q12791 whole entry): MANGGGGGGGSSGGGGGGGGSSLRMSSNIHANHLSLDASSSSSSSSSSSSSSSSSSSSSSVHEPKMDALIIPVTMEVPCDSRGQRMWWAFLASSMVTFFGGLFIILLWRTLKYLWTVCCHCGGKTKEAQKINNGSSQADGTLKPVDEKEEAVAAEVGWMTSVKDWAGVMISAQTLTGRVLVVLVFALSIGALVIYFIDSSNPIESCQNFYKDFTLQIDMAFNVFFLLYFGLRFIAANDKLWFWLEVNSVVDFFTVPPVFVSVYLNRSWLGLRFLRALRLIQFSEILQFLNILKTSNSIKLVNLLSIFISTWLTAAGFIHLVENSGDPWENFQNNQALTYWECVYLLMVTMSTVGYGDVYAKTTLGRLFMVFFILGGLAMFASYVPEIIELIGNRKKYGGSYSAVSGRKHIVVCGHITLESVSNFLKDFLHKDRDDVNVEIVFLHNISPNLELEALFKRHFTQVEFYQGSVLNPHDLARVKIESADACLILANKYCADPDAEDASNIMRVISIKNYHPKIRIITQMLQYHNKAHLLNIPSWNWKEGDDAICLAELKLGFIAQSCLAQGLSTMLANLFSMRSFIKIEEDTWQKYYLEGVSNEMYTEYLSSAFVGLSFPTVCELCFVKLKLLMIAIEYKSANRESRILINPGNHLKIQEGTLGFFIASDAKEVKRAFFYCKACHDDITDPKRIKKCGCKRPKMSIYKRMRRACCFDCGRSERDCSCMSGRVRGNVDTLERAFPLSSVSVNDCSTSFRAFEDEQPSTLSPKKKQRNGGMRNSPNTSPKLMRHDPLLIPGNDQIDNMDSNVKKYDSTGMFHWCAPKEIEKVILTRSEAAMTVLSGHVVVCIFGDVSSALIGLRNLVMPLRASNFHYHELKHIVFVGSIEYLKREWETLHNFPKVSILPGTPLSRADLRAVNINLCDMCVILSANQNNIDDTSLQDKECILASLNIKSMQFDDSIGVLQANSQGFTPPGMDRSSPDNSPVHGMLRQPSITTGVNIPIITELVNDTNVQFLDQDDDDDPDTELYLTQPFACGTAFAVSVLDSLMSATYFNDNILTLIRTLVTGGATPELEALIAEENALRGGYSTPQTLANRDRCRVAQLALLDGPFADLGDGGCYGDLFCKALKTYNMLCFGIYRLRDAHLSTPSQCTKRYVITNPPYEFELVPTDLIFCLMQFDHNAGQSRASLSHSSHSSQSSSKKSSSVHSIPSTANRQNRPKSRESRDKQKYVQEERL

Substance: human large conductance voltage- and calcium-activated potassium channel (hBK), Q12791 1-1236 (natural protein; other documents disagree on this pair)
- stoichiometry N: 4
